The source of these data is patent US20140080161A1, “PHOSPHATASE COUPLED KINASE ASSAY” (RESEARCH AND DIAGNOSTIC SYSTEMS, INC., priority 2010, published 2014).

Data set [1] in a line: Coupling capacity of the phosphatase (ADP completely hydrolyzed). It is filed as biochemical. The following applies: 0.2 μg phosphatase. An excerpt:
Phosphatases useful in embodiments of the invention are preferably able to completely hydrolyze all of the ADP generated in a kinase reaction. The amount of complete hydrolysis which can be performed by a phosphatase under a set of reaction conditions may be characterized as the coupling capacity of the phosphatase. As such, the coupling capacity represents the amount of ADP that can be completely hydrolyzed by a given amount of a phosphatase under specific conditions. Coupling capacity may be determined by performing a series of reactions, combining a set amount of phosphatase with increasing amounts of ADP. The reactions may be performed for various lengths of time, with different coupling capacities as a result. The desired reaction time and amount of phosphatase to be used in kinase reactions can then be selected such that the corresponding coupling capacity is greater than the anticipated amount of ADP produced in the kinase reaction. Coupling capacity can be determined as the maximum amount of ADP that is completely hydrolyzed by a given amount of phosphatase in FIG. 3. […] At this level of ADP production, the amount of phosphatase is therefore adequate. However, as the level of ADP produced increases beyond the capacity for a given amount of phosphatase, hydrolysis may not be complete. At this point, coupling capacity is not adequate for the ADP production during a kinase reaction, and the hydrolysis curve diverges and falls below the phosphate standard curve. […]
In order to provide a measurement of kinase activity, the phosphatase needs to be able to completely hydrolyze all ADP generated by the kinase reaction. In this example, the coupling capacity was determined by performing three series of reactions combining 0.2 μg rhCD39L2 with increasing amounts of ADP (3.125, 6.25, 12.5, 25, 50, and 100 nmols), with each series of reactions allowed to run for various lengths of time 10, 20 or 40 minutes. The reactions were stopped and free phosphate was measured using the Malachite Green assay as described above. […]

Data set [2] is described as follows: Specific activity of the phosphatase (free phosphate released per time per amount). Format: biochemical. An excerpt: Phosphatases used in embodiments of the invention have a high specific activity on ADP. The specific activity of the phosphatase used in the examples is the amount of free phosphate released from a substrate per unit time and per amount of phosphatase under a given set of conditions, and may be determined at the rising phase of an enzymatic dose curve, such as the hydrolysis curve as described above. In some embodiments, the phosphatase has a specific activity of greater than 100 pmol/min/μg under optimal conditions. The conditions may include optimal pH, salt concentrations, and the presence of any cofactor. In other embodiments, the phosphatase has a specific activity of greater than 1,000 pmol/min/μg. In still other embodiments, the phosphatase has a specific activity of greater than 20,000 pmol/min/μg. When phosphatases having lower specific activity are used, larger amounts of such phosphatases or longer reaction times may be used to achieve the same level of hydrolysis as can be achieved with a phosphatase having higher specific activity.

For data set [3] the following is noted: enzyme as obtained from R&D Systems; cited from earlier work.

Some results are limits rather than exact numbers.

B1: rhCD39L2: recombinant human CD39L2, nucleotide phosphatase preferring ADP over ATP, used for coupling (protein, UniProt O75354 1-484, looked up)
Ectonucleoside triphosphate …: MKKGIRYETSRKTSYIFQQPQHGPWQTRMRKISNHGSLRVAKVAYPLGLCVGVFIYVAYIKWHRATATQAFFSITRAAPGARWGQQAHSPLGTAADGHEVFYGIMFDAGSTGTRVHVFQFTRPPRETPTLTHETFKALKPGLSAYADDVEKSAQGIRELLDVAKQDIPFDFWKATPLVLKATAGLRLLPGEKAQKLLQKVKKVFKASPFLVGDDCVSIMNGTDEGVSAWITINFLTGSLKTPGGSSVGMLDLGGGSTQIAFLPRVEGTLQASPPGYLTALRMFNRTYKLYSYSYLGLGLMSARLAILGGVEGQPAKDGKELVSPCLSPSFKGEWEHAEVTYRVSGQKAAASLHELCAARVSEVLQNRVHRTEEVKHVDFYAFSYYYDLAAGVGLIDAEKGGSLVVGDFEIAAKYVCRTLETQPQSSPFSCMDLTYVSLLLQEFGFPRSKVLKLTRKIDNVETSWALGAIFHYIDSLNRQKSPAS
On to B1, for which the coupling capacity is recorded as 10 nmole of ADP in data set [1] (10 minute reaction), 20 nmole of ADP in data set [1] (20 minute reaction) and 100 nmole of ADP in data set [1] (40 minute reaction). Moreover, in data set [2], the “specific activity on ADP” value is on record as > 20,000 pmol/min/μg. Further, in data set [3], the specific activity is given as > 20,000 pmol/min/μg.
